US20260070987A1

Target: equine FcRn (large alpha subunit p51) / equine beta-2-microglobulin complex, biotinylated (equine) (UniProt P30441)
Assay: SPR (Biacore), pH 6

Sequence of UniProt P30441 (P30441 21-118, one chain of several): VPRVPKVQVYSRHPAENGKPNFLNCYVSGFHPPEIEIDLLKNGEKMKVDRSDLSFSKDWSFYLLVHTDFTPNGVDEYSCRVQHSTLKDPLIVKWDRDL

Binder	Kd [nM]
equine IgG1 T286W (antibody, part only; not given: Variable domains, not shown: another chain or arm of the molecule) constant: ASTTAPKVFALAPGCGTTSDSTVALGCLVSGYFPEPVKVSWNSGSLTSGVHTFPSVLQSSGFYSLSSMVTVPASTWTSETYICNVVHAASNFKVDKRIEPIPDNHQKVCDMSKCPKCPAPELLGGPSVFIFPPNPKDTLMITRTPEVTCVVVDVSQENPDVKFNWYMDGVEVRWATTRPKEEQFNSTYRVVSVLRIQHQDWLSGKEFKCKVNNQALPQPIERTITKTKGRSQEPQVYVLAPHPDELSKSKVSVTCLVKDFYPPEINIEWQSNGQPELETKYSTTQAQQDSDGSYFLYSKLSVDRNRWQQGTTFTCGVMHEALHNHYTQKNVSKNPGK	18.4
equine IgG4 Y436F (antibody, part only; not given: variable domains, not shown: another chain or arm of the molecule) constant: ASTTAPKVFPLASHSAATSGSTVALGCLVSSYFPEPVTVSWNSGALTSGVHTFPSVLQSSGLYSLSSMVTVPASSLKSQTYICNVAHPASSTKVDKKIVIKECNGGCPAECLQVGPSVFIFPPKPKDVLMISRTPTVTCVVVDVGHDFPDVQFNWYVDGVETHTATTEPKQEQFNSTYRVVSVLPIQHKDWLSGKEFKCKVNNKALPAPVERTISKPTGQPREPQVYVLAPHRDELSKNKVSVTCLVKDFYPTDIDIEWKSNGQPEPETKYSTTPAQLDSDGSYFLYSKLTVETNRWQQGTTFTCAVMHEALHNHFTEKSVSKSPGK	12.6
equine IgG4 Y436L (antibody, part only; not given: variable domains, not shown: another chain or arm of the molecule) constant: ASTTAPKVFPLASHSAATSGSTVALGCLVSSYFPEPVTVSWNSGALTSGVHTFPSVLQSSGLYSLSSMVTVPASSLKSQTYICNVAHPASSTKVDKKIVIKECNGGCPAECLQVGPSVFIFPPKPKDVLMISRTPTVTCVVVDVGHDFPDVQFNWYVDGVETHTATTEPKQEQFNSTYRVVSVLPIQHKDWLSGKEFKCKVNNKALPAPVERTISKPTGQPREPQVYVLAPHRDELSKNKVSVTCLVKDFYPTDIDIEWKSNGQPEPETKYSTTPAQLDSDGSYFLYSKLTVETNRWQQGTTFTCAVMHEALHNHLTEKSVSKSPGK	16
equine IgG4 Y436M (antibody, part only; not given: variable domains, not shown: another chain or arm of the molecule) constant: ASTTAPKVFPLASHSAATSGSTVALGCLVSSYFPEPVTVSWNSGALTSGVHTFPSVLQSSGLYSLSSMVTVPASSLKSQTYICNVAHPASSTKVDKKIVIKECNGGCPAECLQVGPSVFIFPPKPKDVLMISRTPTVTCVVVDVGHDFPDVQFNWYVDGVETHTATTEPKQEQFNSTYRVVSVLPIQHKDWLSGKEFKCKVNNKALPAPVERTISKPTGQPREPQVYVLAPHRDELSKNKVSVTCLVKDFYPTDIDIEWKSNGQPEPETKYSTTPAQLDSDGSYFLYSKLTVETNRWQQGTTFTCAVMHEALHNHMTEKSVSKSPGK	14.3
equine IgG4 Y436S (antibody, part only; not given: variable domains, not shown: another chain or arm of the molecule) constant: ASTTAPKVFPLASHSAATSGSTVALGCLVSSYFPEPVTVSWNSGALTSGVHTFPSVLQSSGLYSLSSMVTVPASSLKSQTYICNVAHPASSTKVDKKIVIKECNGGCPAECLQVGPSVFIFPPKPKDVLMISRTPTVTCVVVDVGHDFPDVQFNWYVDGVETHTATTEPKQEQFNSTYRVVSVLPIQHKDWLSGKEFKCKVNNKALPAPVERTISKPTGQPREPQVYVLAPHRDELSKNKVSVTCLVKDFYPTDIDIEWKSNGQPEPETKYSTTPAQLDSDGSYFLYSKLTVETNRWQQGTTFTCAVMHEALHNHSTEKSVSKSPGK	30.9
equine IgG4 Y436Q (antibody, part only; not given: variable domains, not shown: another chain or arm of the molecule) constant: ASTTAPKVFPLASHSAATSGSTVALGCLVSSYFPEPVTVSWNSGALTSGVHTFPSVLQSSGLYSLSSMVTVPASSLKSQTYICNVAHPASSTKVDKKIVIKECNGGCPAECLQVGPSVFIFPPKPKDVLMISRTPTVTCVVVDVGHDFPDVQFNWYVDGVETHTATTEPKQEQFNSTYRVVSVLPIQHKDWLSGKEFKCKVNNKALPAPVERTISKPTGQPREPQVYVLAPHRDELSKNKVSVTCLVKDFYPTDIDIEWKSNGQPEPETKYSTTPAQLDSDGSYFLYSKLTVETNRWQQGTTFTCAVMHEALHNHQTEKSVSKSPGK	25.6
equine IgG4 Y436I (antibody, part only; not given: variable domains, not shown: another chain or arm of the molecule) constant: ASTTAPKVFPLASHSAATSGSTVALGCLVSSYFPEPVTVSWNSGALTSGVHTFPSVLQSSGLYSLSSMVTVPASSLKSQTYICNVAHPASSTKVDKKIVIKECNGGCPAECLQVGPSVFIFPPKPKDVLMISRTPTVTCVVVDVGHDFPDVQFNWYVDGVETHTATTEPKQEQFNSTYRVVSVLPIQHKDWLSGKEFKCKVNNKALPAPVERTISKPTGQPREPQVYVLAPHRDELSKNKVSVTCLVKDFYPTDIDIEWKSNGQPEPETKYSTTPAQLDSDGSYFLYSKLTVETNRWQQGTTFTCAVMHEALHNHITEKSVSKSPGK	12
equine IgG4 Y436N (antibody, part only; not given: variable domains, not shown: another chain or arm of the molecule) constant: ASTTAPKVFPLASHSAATSGSTVALGCLVSSYFPEPVTVSWNSGALTSGVHTFPSVLQSSGLYSLSSMVTVPASSLKSQTYICNVAHPASSTKVDKKIVIKECNGGCPAECLQVGPSVFIFPPKPKDVLMISRTPTVTCVVVDVGHDFPDVQFNWYVDGVETHTATTEPKQEQFNSTYRVVSVLPIQHKDWLSGKEFKCKVNNKALPAPVERTISKPTGQPREPQVYVLAPHRDELSKNKVSVTCLVKDFYPTDIDIEWKSNGQPEPETKYSTTPAQLDSDGSYFLYSKLTVETNRWQQGTTFTCAVMHEALHNHNTEKSVSKSPGK	49.8
equine IgG4 T286A (antibody, part only; not given: variable domains, not shown: another chain or arm of the molecule) constant: ASTTAPKVFPLASHSAATSGSTVALGCLVSSYFPEPVTVSWNSGALTSGVHTFPSVLQSSGLYSLSSMVTVPASSLKSQTYICNVAHPASSTKVDKKIVIKECNGGCPAECLQVGPSVFIFPPKPKDVLMISRTPTVTCVVVDVGHDFPDVQFNWYVDGVETHAATTEPKQEQFNSTYRVVSVLPIQHKDWLSGKEFKCKVNNKALPAPVERTISKPTGQPREPQVYVLAPHRDELSKNKVSVTCLVKDFYPTDIDIEWKSNGQPEPETKYSTTPAQLDSDGSYFLYSKLTVETNRWQQGTTFTCAVMHEALHNHYTEKSVSKSPGK	48.7
equine IgG4 Y436G (antibody, part only; not given: variable domains, not shown: another chain or arm of the molecule) constant: ASTTAPKVFPLASHSAATSGSTVALGCLVSSYFPEPVTVSWNSGALTSGVHTFPSVLQSSGLYSLSSMVTVPASSLKSQTYICNVAHPASSTKVDKKIVIKECNGGCPAECLQVGPSVFIFPPKPKDVLMISRTPTVTCVVVDVGHDFPDVQFNWYVDGVETHTATTEPKQEQFNSTYRVVSVLPIQHKDWLSGKEFKCKVNNKALPAPVERTISKPTGQPREPQVYVLAPHRDELSKNKVSVTCLVKDFYPTDIDIEWKSNGQPEPETKYSTTPAQLDSDGSYFLYSKLTVETNRWQQGTTFTCAVMHEALHNHGTEKSVSKSPGK	34.1
equine IgG4 Y436T (antibody, part only; not given: variable domains, not shown: another chain or arm of the molecule) constant: ASTTAPKVFPLASHSAATSGSTVALGCLVSSYFPEPVTVSWNSGALTSGVHTFPSVLQSSGLYSLSSMVTVPASSLKSQTYICNVAHPASSTKVDKKIVIKECNGGCPAECLQVGPSVFIFPPKPKDVLMISRTPTVTCVVVDVGHDFPDVQFNWYVDGVETHTATTEPKQEQFNSTYRVVSVLPIQHKDWLSGKEFKCKVNNKALPAPVERTISKPTGQPREPQVYVLAPHRDELSKNKVSVTCLVKDFYPTDIDIEWKSNGQPEPETKYSTTPAQLDSDGSYFLYSKLTVETNRWQQGTTFTCAVMHEALHNHTTEKSVSKSPGK	27.2
equine IgG4 Y436W (antibody, part only; not given: variable domains, not shown: another chain or arm of the molecule) constant: ASTTAPKVFPLASHSAATSGSTVALGCLVSSYFPEPVTVSWNSGALTSGVHTFPSVLQSSGLYSLSSMVTVPASSLKSQTYICNVAHPASSTKVDKKIVIKECNGGCPAECLQVGPSVFIFPPKPKDVLMISRTPTVTCVVVDVGHDFPDVQFNWYVDGVETHTATTEPKQEQFNSTYRVVSVLPIQHKDWLSGKEFKCKVNNKALPAPVERTISKPTGQPREPQVYVLAPHRDELSKNKVSVTCLVKDFYPTDIDIEWKSNGQPEPETKYSTTPAQLDSDGSYFLYSKLTVETNRWQQGTTFTCAVMHEALHNHWTEKSVSKSPGK	20.2
equine IgG4 Y436V (antibody, part only; not given: variable domains, not shown: another chain or arm of the molecule) constant: ASTTAPKVFPLASHSAATSGSTVALGCLVSSYFPEPVTVSWNSGALTSGVHTFPSVLQSSGLYSLSSMVTVPASSLKSQTYICNVAHPASSTKVDKKIVIKECNGGCPAECLQVGPSVFIFPPKPKDVLMISRTPTVTCVVVDVGHDFPDVQFNWYVDGVETHTATTEPKQEQFNSTYRVVSVLPIQHKDWLSGKEFKCKVNNKALPAPVERTISKPTGQPREPQVYVLAPHRDELSKNKVSVTCLVKDFYPTDIDIEWKSNGQPEPETKYSTTPAQLDSDGSYFLYSKLTVETNRWQQGTTFTCAVMHEALHNHVTEKSVSKSPGK	13.2
equine IgG4 Y436K (antibody, part only; not given: variable domains, not shown: another chain or arm of the molecule) constant: ASTTAPKVFPLASHSAATSGSTVALGCLVSSYFPEPVTVSWNSGALTSGVHTFPSVLQSSGLYSLSSMVTVPASSLKSQTYICNVAHPASSTKVDKKIVIKECNGGCPAECLQVGPSVFIFPPKPKDVLMISRTPTVTCVVVDVGHDFPDVQFNWYVDGVETHTATTEPKQEQFNSTYRVVSVLPIQHKDWLSGKEFKCKVNNKALPAPVERTISKPTGQPREPQVYVLAPHRDELSKNKVSVTCLVKDFYPTDIDIEWKSNGQPEPETKYSTTPAQLDSDGSYFLYSKLTVETNRWQQGTTFTCAVMHEALHNHKTEKSVSKSPGK	20.3
equine IgG4 Y436R (antibody, part only; not given: variable domains, not shown: another chain or arm of the molecule) constant: ASTTAPKVFPLASHSAATSGSTVALGCLVSSYFPEPVTVSWNSGALTSGVHTFPSVLQSSGLYSLSSMVTVPASSLKSQTYICNVAHPASSTKVDKKIVIKECNGGCPAECLQVGPSVFIFPPKPKDVLMISRTPTVTCVVVDVGHDFPDVQFNWYVDGVETHTATTEPKQEQFNSTYRVVSVLPIQHKDWLSGKEFKCKVNNKALPAPVERTISKPTGQPREPQVYVLAPHRDELSKNKVSVTCLVKDFYPTDIDIEWKSNGQPEPETKYSTTPAQLDSDGSYFLYSKLTVETNRWQQGTTFTCAVMHEALHNHRTEKSVSKSPGK	48.3
equine IgG4 Y436H (antibody, part only; not given: variable domains, not shown: another chain or arm of the molecule) constant: ASTTAPKVFPLASHSAATSGSTVALGCLVSSYFPEPVTVSWNSGALTSGVHTFPSVLQSSGLYSLSSMVTVPASSLKSQTYICNVAHPASSTKVDKKIVIKECNGGCPAECLQVGPSVFIFPPKPKDVLMISRTPTVTCVVVDVGHDFPDVQFNWYVDGVETHTATTEPKQEQFNSTYRVVSVLPIQHKDWLSGKEFKCKVNNKALPAPVERTISKPTGQPREPQVYVLAPHRDELSKNKVSVTCLVKDFYPTDIDIEWKSNGQPEPETKYSTTPAQLDSDGSYFLYSKLTVETNRWQQGTTFTCAVMHEALHNHHTEKSVSKSPGK	61.6
